Source: publication PMC4958977, “Revisiting the mechanism of coagulation factor XIII activation and regulation from a structure/functional perspective” (Scientific Reports, 2016)

Molecular target: the molecule itself
Assay: SEC; 25 ug purified FXIIIA2B2 incubated with 46.2 U/mL thrombin and 25 mM CaCl2, 20 mM Tris, 120 mM NaCl, pH 7.4, 60 minutes at 30 degrees; Superdex 200 PC 3.2/30; peaks checked by native PAGE and mass spectrometry

B1: coagulation factor XIII B subunit (natural protein, human, UniProt P05160 21-661, looked up)
chain: EEKPCGFPHVENGRIAQYYYTFKSFYFPMSIDKKLSFFCLAGYTTESGRQEEQTTCTTEGWSPEPRCFKKCTKPDLSNGYISDVKLLYKIQENMRYGCASGYKTTGGKDEEVVQCLSDGWSSQPTCRKEHETCLAPELYNGNYSTTQKTFKVKDKVQYECATGYYTAGGKKTEEVECLTYGWSLTPKCTKLKCSSLRLIENGYFHPVKQTYEEGDVVQFFCHENYYLSGSDLIQCYNFGWYPESPVCEGRRNRCPPPPLPINSKIQTHSTTYRHGEIVHIECELNFEIHGSAEIRCEDGKWTEPPKCIEGQEKVACEEPPFIENGAANLHSKIYYNGDKVTYACKSGYLLHGSNEITCNRGKWTLPPECVENNENCKHPPVVMNGAVADGILASYATGSSVEYRCNEYYLLRGSKISRCEQGKWSSPPVCLEPCTVNVDYMNRNNIEMKWKYEGKVLHGDLIDFVCKQGYDLSPLTPLSELSVQCNRGEVKYPLCTRKESKGMCTSPPLIKHGVIISSTVDTYENGSSVEYRCFDHHFLEGSREAYCLDGMWTTPPLCLEPCTLSFTEMEKNNLLLKWDFDNRPHILHGEYIEFICRGDTYPAELYITGSILRMQCDRGQLKYPRCIPRQSTLSYQEPLRT
notes: human coagulation factor XIII B subunit from plasma, ten Sushi domains; 80 kDa; also called FXIIIB; FXIIIB2; source: purified as FXIIIA2B2 from plasma concentrate Fibrogammin P (CSL Behring), gel filtration on Superdex 200
Question: Does B1 bind?
Answer: binds
